The record followed here is US20160333105A1 (UCB, published 2016).

The target of experiment [1] is T1, human serum albumin (human, UniProt P02768 25-609).
T1 construct: Bought reagent; also called HSA
In words: SPR, Biacore 3000; construct captured by anti-CH1 antibody, HSA as analyte, 1:1 model. As for the experimental part:
(§1) The (A26Fab-645Fv)₂-Fc samples were captured to the sensor chip surface using either a human Fe-specific goat F(ab′)₂ (Jackson ImmunoResearch, 109-006-098) or an in-house generated anti-human CH1 monoclonal antibody. Covalent immobilisation of the capture antibody was achieved by standard amine coupling chemistry.
(§2) Kinetic binding analysis by SPR was conducted to assess the interactions of human serum albumin (HSA) to the (A26Fab-645Fv)₂-Fc fusion, when captured using either anti-Fc or anti CH1 antibody.
A general note: In SPR one partner is held on a chip, and binding of the other changes the refractive index at the surface.

The target of experiment [2] is T1, human serum albumin. In words: SPR, Biacore 3000; construct captured by anti-Fc F(ab')2, HSA as analyte, 1:1 model. Here is the method:
as §1, §2

The target of experiment [3] is T1, human serum albumin. In words: SPR (BIAcore), HSA as analyte.

B1: (A26Fab-645Fv)2-Fc (bispecific antibody)
heavy: not shown
light: DIQMTQSPSSLSASVGDRVTITCRATQSIYNALAWYQQKPGKAPKLLIYNANTLHTGVPSRFSASGSGTDSTLTISSLQPEDFATYYCQQYYDYPLTFGGGTKVEIKRTVAAPSVFIFPPSDEQLKSGTASVVCLLNNFYPREAKVQWKVDNALQSGNSQESVTEQDSKDSTYSLSSTLTLSKADYEKHKVYACEVTHQGLSSPVTKSFNRGECSGGGGSGGGGSDIVMTQSPSSVSASVGDRVTITCQSSPSVWSNFLSWYQQKPGKAPKLLIYEASKLTSGVPSRFKGSGSGTDFTLTISSLQPEDFATYYCGGGYSSISDTTFGGGTKVEIKRMHEQKLISEEDL
notes: Tested as HEK293 supernatant; also called (FabFv)2Fc; (A26-645Fv)2-Fc
By Kd is commonly meant the constant that tells how readily two partners part at equilibrium. Lower therefore signals a tighter complex. One may read the koff as the first-order rate constant of dissociation. Higher therefore signals a short-lived complex. As a reminder, the kon is a measure of how fast the partners come together. The low end stands for slower complex formation, the high end for faster complex formation. Consider B1, for which, in the experiment with human serum albumin [1], the Kd stood at 0.97 nM, the koff worked out at 6e-05 s⁻¹ and the kon is 62000 M⁻¹ s⁻¹. Further, in the experiment with human serum albumin [2], the affinity, expressed as Kd, was 1.88 nM; the koff worked out at 7.14e-05 s⁻¹; the kon amounted to 38000 M⁻¹ s⁻¹. For the same molecule, in the experiment with human serum albumin [3], binding was put at a Kd of 0.97 nM, the Stoichiometry stood at 0.55, the koff was 6e-05 s⁻¹ and the association rate constant (kon) worked out at 62100 M⁻¹ s⁻¹.
